Reference: US20050049193A1

Target: OB-Rb, full-length (long isoform) leptin receptor expressed on transfected GT1-7 cells (mouse), P48356
Assay: cell-based or functional assay

Chain of OB-Rb, full-length (long isoform) leptin receptor expressed on transfected GT1-7 cells (mouse), P48356 (P48356 22-1162): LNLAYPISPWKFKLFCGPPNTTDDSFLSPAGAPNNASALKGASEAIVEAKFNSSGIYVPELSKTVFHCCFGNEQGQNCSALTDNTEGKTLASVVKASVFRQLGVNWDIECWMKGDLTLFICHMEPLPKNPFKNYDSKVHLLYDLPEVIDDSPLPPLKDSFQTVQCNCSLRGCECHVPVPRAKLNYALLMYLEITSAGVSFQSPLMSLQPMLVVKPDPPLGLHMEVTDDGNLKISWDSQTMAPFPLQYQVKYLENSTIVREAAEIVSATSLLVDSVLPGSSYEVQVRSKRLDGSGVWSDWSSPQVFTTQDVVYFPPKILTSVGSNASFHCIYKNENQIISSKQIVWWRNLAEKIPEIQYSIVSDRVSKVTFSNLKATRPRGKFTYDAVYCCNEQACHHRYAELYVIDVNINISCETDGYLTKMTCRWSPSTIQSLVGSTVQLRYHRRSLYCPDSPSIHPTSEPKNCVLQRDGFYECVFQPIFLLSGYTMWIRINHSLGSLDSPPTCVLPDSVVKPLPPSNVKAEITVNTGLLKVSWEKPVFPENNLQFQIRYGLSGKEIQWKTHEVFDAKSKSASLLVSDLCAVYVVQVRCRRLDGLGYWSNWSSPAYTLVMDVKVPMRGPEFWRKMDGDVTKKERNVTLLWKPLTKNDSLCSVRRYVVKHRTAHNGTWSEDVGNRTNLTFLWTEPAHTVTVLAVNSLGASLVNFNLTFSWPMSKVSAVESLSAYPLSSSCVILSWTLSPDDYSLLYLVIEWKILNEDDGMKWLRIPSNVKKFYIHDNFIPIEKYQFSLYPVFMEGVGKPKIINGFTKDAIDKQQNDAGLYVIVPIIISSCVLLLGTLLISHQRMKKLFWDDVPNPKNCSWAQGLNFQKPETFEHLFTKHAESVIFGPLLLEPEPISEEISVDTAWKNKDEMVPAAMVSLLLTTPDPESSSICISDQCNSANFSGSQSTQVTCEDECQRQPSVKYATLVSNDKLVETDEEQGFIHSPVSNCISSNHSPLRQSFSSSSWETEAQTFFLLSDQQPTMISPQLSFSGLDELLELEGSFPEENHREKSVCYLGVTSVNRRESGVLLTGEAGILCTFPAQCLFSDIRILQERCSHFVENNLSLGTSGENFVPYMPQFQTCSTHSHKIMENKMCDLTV

- SEAP activity (HRRE-SEAP reporter in GT1-7 cells): 11 fold
B1: recombinant mouse leptin, P41160 22-167 (ligand)
chain: VPIQKVQDDTKTLIKTIVTRINDISHTQSVSAKQRVTGLDFIPGLHPILSLSKMDQTLAVYQQVLTSLPSQNVLQIANDLENLRDLLHLLAFSKSCSLPQTSGLQKPESLDGVLEASLYSTEVVALSRLQGSLQDILQQLDVSPEC
